The target of the test is T1, M1-linked tetra-ubiquitin (UniProt P0CG48 1-76; P0CG48 1-76; P0CG48 1-76; P0CG48 1-76, M1-linked).
T1 construct: ubiquitin, first of four head-to-tail repeats; ubiquitin, second repeat; ubiquitin, third repeat; ubiquitin, fourth repeat; also called M1-linked chains
Put plainly: pull-down; GST fusion held on glutathione agarose, incubated with 0.5 μg of an individual tetra-ubiquitin chain, 2 h at 4 °C; 150 mM NaCl, 50 mM Tris pH 7.5, 0.1% IGEPAL, 5 mM DTT, 0.25 mg/mL BSA; immunoblotted for GST and ubiquitin. The note with it: both partners purified. In general terms: In western blotting, separated proteins are transferred to a membrane and probed.

B1: GST-TNK1-UBA (domain or fragment, human, UniProt Q13470 585-666, looked up)
chain: LLSDPELQRKIMEVELSVHGVTHQECQTALGATGGDVVSAIRNLKVDQLFHLSSRSRADCWRILEHYQWDLSAASRYVLARP
notes: TNK1, human, amino acid 585 to 666 (UBA domain), in pGEX-6P-1; also called GST-tagged recombinant TNK1 UBA; source: E. coli BL21; held on glutathione agarose and washed (pull-down); lysate loaded on anti-GST biosensors (BLI); not shown: GST, N-terminal, kept
In the case of B1, the binding result is reported as “binds”.

Values taken from paper PMC8429728 (Nature Communications, 2021).
